Source: patent US20160257946A1

Target: Her2 on the Her2-positive breast cancer cell line SKBR3 (UniProt P04626)
Assay: cell-based or functional assay

Substance “trastuzumab-MMAF conjugates (trastuzumab-HC136-MMAF) (antibody)” has a cytotoxicity (cell killing, Cell Titer-Glo viability) on SKBR3 cells, EC50 of 0.043 to 0.071 nM.
